Laboratory results: patent US20130251731A1, “Tau Acetylation in the Pathogenesis of Alzheimers Disease and Other Related Tauopathies” (THE TRUSTEES OF THE UNIVERSITY OF PENNSYLVANIA, priority 2012, published 2013)

Target: microtubules of transfected QBI-293 cells
Experiment: cell-based or functional assay

Substance	% MT bundling from tau-expressing cells
tau-4KQ acetylation mimetic (T40 K163/280/281/369Q) (from UniProt P10636 1-441)	7 % bundling
wild-type tau-T40 (2N4R), not acetylated (from UniProt P10636 2-441)	55 % bundling
tau-T40 K280Q mimetic (from UniProt P10636 1-441)	40 % bundling
tau-4KR non-mimetic mutant (T40 K163/280/281/369R) (from UniProt P10636 1-441)	50 % bundling
